Measured values from article PMC8115288, “INI1/SMARCB1 Rpt1 domain mimics TAR RNA in binding to integrase to facilitate HIV-1 replication”.

B1: unlabeled TAR RNA (HIV-1 vRNA 1-57) (structured_RNA)
RNA: GGUCUCUCUGGUUAGACCAGAUCUGAGCCUGGGAGCUCUCUGGCUAACUAGGGAACC
B2: Bio-TAR RNA (HIV-1 vRNA 1-57) (structured_RNA)
RNA: B1 RNA
modifications: biotin-dT (terminal; end ambiguous in printed table)

Legend:
[1] = molecular target: T1, GST-IN-CTD (HIV-1 integrase C-terminal domain) (HIV-1, UniProt P04585 1348-1435); assay: competition (AlphaScreen); low salt; competes with His6-SUMO-INI1(183-304) (0.094 uM) for GST-CTD (0.186 uM); Alpha proximity assay, low salt (100 mM NaCl; 500 mM in salt test); buffer, pH and temperature not in the material; conditions: protein: recombinant; tags: GST; hairpin
[2] = molecular target: T1, GST-IN-CTD (HIV-1 integrase C-terminal …); assay: AlphaScreen; 100 mM NaCl; displaced by INI1(183-304), IC50 of INI1 about 5 nM (Fig. 4e); Alpha proximity assay, low salt (100 mM NaCl; 500 mM in salt test); buffer, pH and temperature not in the material; conditions: protein: recombinant; tags: GST; label: biotin; hairpin

Row | Binder | IC50 [1] [nM] | binding result [2]
1 | B1 | ~5 | –
2 | B2 | – | binds
